Earlier results, collected in publication PMC3058932.

Legend:
[1] = molecular target: GRP receptor (Homo sapiens) (UniProt P30550); test: PC-3 membrane binding
[2] = molecular target: GRP receptor (Rattus norvegicus) (UniProt P52500); test: rat brain membrane binding
UniProt P52500, sequence (P52500 whole entry): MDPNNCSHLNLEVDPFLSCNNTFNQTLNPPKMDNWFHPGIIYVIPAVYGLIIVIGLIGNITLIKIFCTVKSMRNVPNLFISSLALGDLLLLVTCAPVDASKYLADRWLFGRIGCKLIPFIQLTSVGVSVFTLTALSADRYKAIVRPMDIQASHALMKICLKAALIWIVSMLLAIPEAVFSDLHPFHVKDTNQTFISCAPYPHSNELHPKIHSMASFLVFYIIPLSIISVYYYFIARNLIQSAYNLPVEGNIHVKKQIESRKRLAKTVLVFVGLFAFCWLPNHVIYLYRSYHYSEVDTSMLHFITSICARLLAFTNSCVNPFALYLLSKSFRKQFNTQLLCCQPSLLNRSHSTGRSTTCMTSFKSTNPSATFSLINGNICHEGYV

UniProt P30550, sequence (P30550 whole entry): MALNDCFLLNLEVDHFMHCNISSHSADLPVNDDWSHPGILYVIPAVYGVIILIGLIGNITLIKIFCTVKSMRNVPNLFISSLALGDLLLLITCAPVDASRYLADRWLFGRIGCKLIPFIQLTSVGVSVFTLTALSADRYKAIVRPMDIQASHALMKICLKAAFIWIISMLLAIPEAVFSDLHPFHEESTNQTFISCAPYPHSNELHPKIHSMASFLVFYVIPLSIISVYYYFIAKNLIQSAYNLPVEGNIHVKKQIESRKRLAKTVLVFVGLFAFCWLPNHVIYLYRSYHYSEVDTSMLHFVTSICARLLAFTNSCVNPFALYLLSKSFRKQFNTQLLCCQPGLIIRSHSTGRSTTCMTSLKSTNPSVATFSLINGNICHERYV

Ki [1]: 1.7 nM
Ki [2]: 4.3 nM
Substance: bombesin (from UniProt P84214)
